Measurements reported in article PMC2669539 (Nature structural & molecular biology, 2008).

B1: human Notch-1 EGF domains 11-13 (N-1_(11-13)) with C-terminal BirA-tag, biotinylated (domain or fragment)
chain: QDVDECSLGANPCEHAGKCINTLGSFECQCLQGYTGPRCEIDVNECVSNPCQNDATCLDQIGEFQCICMPGYEGVHCEVNTDECASSPCLHNGRCLDKINEFQCECPTGFTGHLCQ
modifications: biotin on the C-terminal tag
B2: human Notch-1 EGF domains 11-13 (N-1_(11-13)) without the BirA-tag (domain or fragment)
chain: B1 chain

How the values were obtained:
[1] = molecular target: T1, human Jagged-1 DSL-EGF3 fragment (J-1_(DSL-EGF3)), His-tagged, wild type (human, UniProt P78504 187-335); test: pull-down
[2] = molecular target: T1, human Jagged-1 DSL-EGF3 fragment …; test: SPR

T1 sequence (P78504 187-335): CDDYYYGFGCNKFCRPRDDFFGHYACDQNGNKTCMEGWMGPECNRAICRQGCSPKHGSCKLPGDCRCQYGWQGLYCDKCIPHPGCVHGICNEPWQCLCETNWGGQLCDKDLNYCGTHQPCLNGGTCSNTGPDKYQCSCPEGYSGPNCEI

| Binder | binding result [1] | binding result [2] |
| --- | --- | --- |
| B1 | binds |  |
| B2 |  | binds |
